Data published in paper PMC5904407.

Assays:
[1] = biological target: Full-length LapA (FL-LapA; residues 1 to 378), minus N-terminal signal sequence (Legionella pneumophila strain 130b); assay: crystal structure
[2] = biological target: Full-length NttD (FL-NttD; residues 1 to 373), minus N-terminal signal sequence (Legionella pneumophila strain 130b); assay: SEC

Substance	stoichiometry N [1]	stoichiometry N [2]
Full-length LapA (FL-LapA; residues 1 to 378), minus N-terminal signal sequence (enzyme)	2	–
Full-length NttD (FL-NttD; residues 1 to 373), minus N-terminal signal sequence (natural protein)	–	2
